Assay results from patent publication US20110165605A1.
Residue numbers refer to the chain shown, from its start.

T1: α-lactalbumin (Sigma Co.)
T1 sequence (P00711 20-142, species assumed, looked up): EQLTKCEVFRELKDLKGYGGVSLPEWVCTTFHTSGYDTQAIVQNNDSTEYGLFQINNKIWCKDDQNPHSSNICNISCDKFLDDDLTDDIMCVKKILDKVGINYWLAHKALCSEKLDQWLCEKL

B1: mature form of wild-type protein-glutaminase derived from the Chryseobacterium proteolyticum 9670 strain (protein)
chain: LASVIPDVATLNSLFNQIKNQSCGTSTASSPCITFRYPVDGCYARAHKMRQILMNNGYDCEKQFVYGNLKASTGTCCVAWSYHVAILVSYKNASGVTEKRIIDPSLFSSGPVTDTAWRNACVNTSCGSASVSSYANTAGNVYYRSPSNSYLYDNNLINTNCVLTKFSLLSGCSPSPAPDVSSCGF
B2: mature form of the protein-glutaminase mutant Tyr82Ser (protein)
chain: B1 chain with Y82S

Columns and labels:
[1] = biological target: casein (Wako Pure Chemical Industries, Ltd.)
[2] = biological target: separated soybean protein (Fuji Pro F, FUJI OIL CO., LTD.)
[3] = biological target: wheat gluten (Viten, ROQUETTE Co.)
[4] = biological target: T1, α-lactalbumin (Sigma Co.)
[5] = biological target: β-lactoglobulin (Sigma Co.)
[6] = biological target: casein (Wako Pure Chemical Industries, Ltd.); experiment: cell-based or functional assay
[7] = biological target: separated soybean protein (Fuji Pro F, FUJI OIL CO., LTD.); experiment: cell-based or functional assay
[8] = biological target: wheat gluten (Viten, ROQUETTE Co.); experiment: cell-based or functional assay

| Binder | Relative activity (%) [1] | Relative activity (%) [2] | Relative activity (%) [3] | Relative activity (%) [4] | Relative activity (%) [5] | Ratio (Y82S/Wild-type) [4] | Ratio (Y82S/Wild-type) [5] | Ratio (Y82S/Wild-type) [6] | Ratio (Y82S/Wild-type) [7] | Ratio (Y82S/Wild-type) [8] |
| --- | --- | --- | --- | --- | --- | --- | --- | --- | --- | --- |
| B1 | 1020% | 127% | 2620% | 100% | 61% | – | – | – | – | – |
| B2 | 701% | 531% | 4270% | 100% | 309% | 1 | 5 | 0.7 | 4.2 | 1.6 |
